Tests used:
Experiment in all cases: co-immunoprecipitation, blot
Details in all cases: reference: wild type, EGF; sites S303
RelA/p65 [1] = target: RelA/p65 (UniProt Q04206)
RelA/p65 [2] = target: RelA/p65 (UniProt Q04206); remark: listed apart in the source
RelA/p65 [3] = target: RelA/p65 (UniProt Q04206); remark: listed apart in the source

binding against the reference (RelA/p65 [1]): weaker
binding against the reference (RelA/p65 [2]): weaker
binding against the reference (RelA/p65 [3]): weaker
Substance: MIIP (migration and invasion inhibitory protein) (from UniProt Q5JXC2) S303A, EGF

Reference: PMC5643311
